Results published in US10947270B2, “Targeted prodrug cytosine deaminase fusion carrier and application thereof” (National Yang-Ming University, priority 2015, dated 2021).

How the values were obtained:
[1] = Enzyme activity and kinetic analysis of yCD series recombinant proteins (5-FC converted into 5-FU); assay type: biochemical; settings: 50 nM protein
Experimental: FIGS. 2A-2B show the enzyme activities of RGD4C-yCD, yCD, RGD4C-yCD/UPRT and yCD/UPRT proteins to convert 5-FC to 5-FU. 50 nM of RGD4C-yCD, yCD, RGD4C-yCD/UPRT or yCD/UPRT protein reacted with increasing concentrations of 5-FC in phosphate buffered saline solutions. […] The measured data was used to plot the enzyme kinetic curve that takes the substrate concentration [S] as the x-axis and takes the initial reaction rate V0 as the y-axis,
The enzyme activity of 5-FC converted into 5-FU by RGD4C-yCD, yCD, RGD4C-yCD/UPRT and yCD/UPRT is performed. The recombinant protein concentration (50 nM) added with 5-FC at different concentrations. The 5-FC consumption and the generated amount of 5-FU is calculated. The measured data is taken as the x-axis by the substrate concentration [S]; the initial reaction rate V0 is the kinetic curve by making a diagramthe with y-axis (see FIG. 2A and FIG. 2B); the non-linear regression is made by the prism software according to the Michaelis-Menten equation; calculate the enzyme kinetic parameter Km and Vmax. […] It is speculated that the yCD function in each fusion protein is similar, but yUPRT may affect the effects of yCD and 5-FC.

[2] = system: HUVEC cells; experiment: Specific binding assay of yCD series recombinant protein and cell (cell ELISA); assay type: cell-based, human; settings: HUVEC versus MCF-7
Experimental: (§1) FIG. 5A, FIG. 5B, and FIG. 5C are respectively represented HUVEC cells, U87MG cells, MCF-7 cells seeded in 96-well plates for 24 hours, and then RGD4C-yCD, yCD, RGD4C-yCD/UPRT and yCD/UPRT with different concentrations are added for cells binding assay. After reacted with anti-His-HRP antibody and TMB substrate, ELISA reader (OD450 nm) is used to detect the amount of recombinant protein bound to the cells, and the binding curve is drawn. The nonlinear curve of the prism software is used to make a diagram and calculate the dissociation constant (Kd).
(§2) The anti-His6-Tag-HRP antibody and TMB show the color reagent to detect the amount of recombinant protein bound to the cell, then the dissociation constant Kd value of the recombinant protein and the integrin αvβ3 receptor is calculated and a binding curve is drawn. […] The cell binding ability of RGD4C-yCD for HUVEC and U87MG are about 7.7 folds and 6.8 folds higher than MCF-7 respectively. The cell binding ability of RGD4C-yCD/UPRT for HUVEC and U87MG are about 6.9 folds and 5.8 folds higher than MCF-7 respectively. […] It is shown that RGD4C-yCD and RGD4C-yCD/UPRT are specially bound with integrin αvβ3 through RGD4C sequence.

[3] = Enzyme kinetic analysis of yCD series proteins after DTPA modification, marking and purification; assay type: biochemical
Excerpt: The enzyme activity of yCD is not affected by DTPA modification.
FIGS. 24A-24B show the kinetic curve of yCD series protein modified, labeled and purified by DTPA. The enzyme activity of the two proteins is not affected by the labeling conditions. After adding EDTA with a 10-fold molar excess of protein, and it is competitively purified, In-DTPA-yCD compared with the original enzyme activity.
The curve and enzyme kinetic parameters (see FIG. 18 and Table 13) are fitted by the […] protein enzyme kinetics through the Michaelis-Menten formula in the Graph prism program.
Before the protein is labeled by radioisotope, its enzyme function must be determined, and based on the original enzyme function, it should be examined whether it will be affected during the radioactive marking process. The curve and enzyme kinetic parameters of protein are fitted by the Michaelis-Menten formula in the Graph prism program. […] Whether the yCD and RGD4C-yCD protein detected by the same method will be affected under the conditions of DTPA modification, marking and purification. […] After the completion of the radioactive metal mark, it is necessary to add EDTA of 10-fold protein Moire number and react at room temperature for 1 hour to compete for the radioactive metal isotope indium which is not chelated on DTPA. The EDTA in this step also has the chance to chelate the metal zinc ion of the enzyme catalytic center, the enzyme activity is impaired, so it is necessary to analyze the enzyme activity of In-DTPA-yCD and In-RGD4C-yCD protein after competition with EDTA. After the EDTA competitive reaction is completed, the enzyme kinetics analysis can be carried out by reducing the EDTA molecule weight through membrane centrifugation method and by replacing the solution with pH 7.0. […] The curve and receptor binding ability parameters of the protein and integrin αvβ3 are fitted under the conditions of DTPA modification, marking and purification by the One site-Specific binding formula in the Graph prism program (see FIG. 25 and Table 18). […] Although the two proteins after marking are greatly affected by the enzyme activity, they still have good binding ability to the integrin αvβ3 receptor. In consideration of the indispensability of EDTA for radiochemical purity, it retains a considerable amount of enzyme activity. In addition, the effect of integrin αvβ3 receptor binding ability is minimal, in combination of cell uptake, biodistribution and angiography experiment, focusing on the evaluation of target results, and the subsequent biological experiment is still carried out by the marking and purification conditions.

[4] = system: HUVEC and U87MG cells; experiment: Fluorescence microscopy of binding and distribution of yCD series fusion proteins; assay type: cell-based, human; settings: 500 nM protein, 2 hours
Experimental: (FIG. 8A) or 37° C. […] (FIG. 8C) or 37° C. (FIG. 8D) for 2 hours, and then the fluorescent staining is performed for the cells, and the confocal fluorescence microscope is used to observe the distribution of protein in cells. (Green signal: β3 integrin; red signal: anti-His6-tag (also represents the signal of the fusion protein); blue signal: Hoechst 33342 cell nuclear stain) (Calibration scale: 20 μm).
HUVEC and U87MG cells are co-cultured with culture medium containing 500 nM RGD4C-yCD and RGD4C-yCD/UPRT protein at 4° C. and 37° C. for 2 hours, then the cells are stained with fluorescence, and the distribution in the cell is observed by conjugated fluorescence microscopy.

[5] = target: integrin αvβ3 receptor (Homo sapiens, UniProt P05106+P06756); experiment: ELISA binding assay of yCD series recombinant protein to integrin αvβ3 receptor; settings: for decrease of binding to integrin αvβ3 by RGDfv peptide: RGDfv peptide at same concentration
Experimental: FIGS. 3A-3B show the binding affinity and specificity of RGD4C-yCD, yCD, RGD4C-yCD/UPRT and yCD/UPRT proteins to integrin αvβ3. The binding affinities of RGD4C-yCD, yCD, RGD4C-yCD/UPRT and yCD/UPRT proteins to integrin αvβ3 were determined by ELISA assay using horseradish peroxidase (HRP)-tagged anti-His6 antibody (FIG. 3A). The dissociation constant Kd is obtained by prism software with curve fitting method. […] (*compared with untreated RGDfv group, P<0.05)
The specific binding ability of RGD4C-yCD, yCD, RGD4C-yCD/UPRT and yCD/UPRT recombinant protein to integrin αvβ3 receptor is analyzed by ELISA binding assay, plotted with prism software and made with curve fitting to find the dissociation constant Kd value.

[6] = system: HUVEC, U87MG and MCF-7 cells; experiment: Specific binding assay of yCD series recombinant protein and cell, statement for the three cells; assay type: cell-based, human
Experimental: as §1, §2

integrin αvβ3 receptor, sequence (P06756 31-889 limits assumed): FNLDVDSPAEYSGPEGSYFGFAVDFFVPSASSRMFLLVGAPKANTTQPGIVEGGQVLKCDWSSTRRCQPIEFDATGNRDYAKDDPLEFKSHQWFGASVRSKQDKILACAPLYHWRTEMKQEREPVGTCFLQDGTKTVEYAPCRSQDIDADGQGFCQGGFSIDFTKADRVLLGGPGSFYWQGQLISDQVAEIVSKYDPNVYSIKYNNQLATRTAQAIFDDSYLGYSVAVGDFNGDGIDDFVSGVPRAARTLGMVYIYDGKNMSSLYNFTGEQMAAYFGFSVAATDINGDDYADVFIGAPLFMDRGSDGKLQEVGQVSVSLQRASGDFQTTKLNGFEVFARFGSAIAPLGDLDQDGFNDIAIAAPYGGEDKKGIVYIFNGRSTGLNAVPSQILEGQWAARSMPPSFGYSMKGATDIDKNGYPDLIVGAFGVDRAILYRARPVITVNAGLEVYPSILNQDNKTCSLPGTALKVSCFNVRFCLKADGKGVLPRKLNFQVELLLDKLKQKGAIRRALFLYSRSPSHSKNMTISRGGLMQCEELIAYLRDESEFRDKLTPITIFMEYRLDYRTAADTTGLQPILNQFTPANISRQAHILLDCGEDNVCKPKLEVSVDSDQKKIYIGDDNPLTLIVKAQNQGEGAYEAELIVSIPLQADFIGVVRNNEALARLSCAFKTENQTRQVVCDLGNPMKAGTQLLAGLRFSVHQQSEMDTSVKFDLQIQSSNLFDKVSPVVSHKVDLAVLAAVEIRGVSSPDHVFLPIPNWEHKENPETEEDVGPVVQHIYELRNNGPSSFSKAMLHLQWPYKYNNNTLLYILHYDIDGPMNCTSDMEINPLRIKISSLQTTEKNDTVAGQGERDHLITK
integrin αvβ3 receptor, sequence (P06756 891-1048 partner limits assumed): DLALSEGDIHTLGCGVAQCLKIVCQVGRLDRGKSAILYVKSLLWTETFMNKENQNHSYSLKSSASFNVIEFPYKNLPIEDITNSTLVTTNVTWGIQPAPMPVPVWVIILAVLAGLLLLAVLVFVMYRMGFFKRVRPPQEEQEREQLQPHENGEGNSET
integrin αvβ3 receptor, sequence (P05106 27-788): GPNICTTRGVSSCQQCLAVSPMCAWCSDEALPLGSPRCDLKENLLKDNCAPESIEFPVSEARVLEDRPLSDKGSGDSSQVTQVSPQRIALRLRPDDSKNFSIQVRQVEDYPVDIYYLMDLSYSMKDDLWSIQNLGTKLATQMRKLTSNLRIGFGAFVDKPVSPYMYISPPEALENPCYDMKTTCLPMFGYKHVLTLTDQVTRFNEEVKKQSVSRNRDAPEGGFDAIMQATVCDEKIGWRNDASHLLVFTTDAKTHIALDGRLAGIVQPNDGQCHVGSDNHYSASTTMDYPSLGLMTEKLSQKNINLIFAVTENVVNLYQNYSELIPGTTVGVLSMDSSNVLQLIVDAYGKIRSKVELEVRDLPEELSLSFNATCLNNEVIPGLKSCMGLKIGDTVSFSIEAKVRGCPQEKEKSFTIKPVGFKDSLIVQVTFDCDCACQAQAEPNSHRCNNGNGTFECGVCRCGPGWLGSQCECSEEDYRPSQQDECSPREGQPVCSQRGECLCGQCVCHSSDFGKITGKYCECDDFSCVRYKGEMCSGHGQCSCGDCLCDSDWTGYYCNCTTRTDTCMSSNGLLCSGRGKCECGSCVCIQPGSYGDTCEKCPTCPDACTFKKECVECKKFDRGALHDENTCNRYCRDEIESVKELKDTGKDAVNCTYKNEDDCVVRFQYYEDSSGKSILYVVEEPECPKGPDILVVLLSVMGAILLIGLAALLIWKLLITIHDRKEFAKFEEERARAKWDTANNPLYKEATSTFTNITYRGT

decrease of binding to integrin αvβ3 by RGDfv peptide [5]	binding to integrin αvβ3 ([5]; ELISA)	Molecule	Km ([1]; calculated by 5-FC consumption)	Vmax ([1]; calculated by 5-FC consumption)	Km ([1]; calculated by 5-FU formation)	Vmax ([1]; calculated by 5-FU formation)	cell binding ability higher than MCF-7 [2]	Km [3]	Vmax [3]	binding and distribution in cells ([4]; 4° C.)	binding and distribution in cells ([4]; 37° C.)	binding to the three cells [6]
50%		RGD4C-yCD: targeted prodrug enzyme fusion protein of RGD4C and yCD (SEQ ID NO: 3) (protein, RGD4C_yCD) MACDCRGDCFCVTGGMASKWDQKGMDIAYEEAALGYKEGGVPIGGCLINNKDGSVLGRGHNMRFQKGSATLHGEISTLENCGRLEGKVYKDTTLYTTLSPCDMCTGAIIMYGIPRCVVGENVNFKSKGEKYLQTRGHEVVVVDDERCKKIMKQFIDERPQDWFEDIGELEHHHHHH	600 ± 100 µM	179.5 ± 4.7 µM/min	900 ± 100 µM	167.7 ± 4.6 µM/min	about 7.7 folds	1000 ± 73.2 µM	288.7 ± 8.883 µM/min	only bound to HUVEC and U87MG cell surface	enter the inside of HUVEC and U87MG cells through endocytosis	
50%		RGD4C-yCD/UPRT: targeted prodrug enzyme fusion protein (SEQ ID NO: 4) (protein, RGD4C_yCD_yUPRT) MACDCRGDCFCVTGGMASKWDQKGMDIAYEEAALGYKEGGVPIGGCLINNKDGSVLGRGHNMRFQKGSATLHGEISTLENCGRLEGKVYKDTTLYTTLSPCDMCTGAIIMYGIPRCVVGENVNFKSKGEKYLQTRGHEVVVVDDERCKKIMKQFIDERPQDWFEDIGEASEPFKNVYLLPQTNQLLGLYTIIRNKNTTRPDFIFYSDRIIRLLVEEGLNHLPVQKQIVETDTNENFEGVSFMGKICGVSIVRAGESMEQGLRDCCRSVRIGKILIQRDEETALPKLFYEKLPEDISERYVFLLDPMLATGGSAIMATEVLIKRGVKPERIYFLNLICSKEGIEKYHAAFPEVRIVTGALDRGLDENKYLVPGLGDFGDRYYCVLEHHHHHH	1200 ± 200 µM	147.0 ± 5.9 µM/min	1200 ± 200 µM	109.2 ± 10.1 µM/min	about 6.9 folds			only bound to HUVEC and U87MG cell surface	enter the inside of HUVEC and U87MG cells through endocytosis	
	cannot be bound	yCD/UPRT: recombinant fusion of yCD and yUPRT without target molecule (protein) MVVTGGMASKWDQKGMDIAYEEAALGYKEGGVPIGGCLINNKDGSVLGRGHNMRFQKGSATLHGEISTLENCGRLEGKVYKDTTLYTTLSPCDMCTGAIIMYGIPRCVVGENVNFKSKGEKYLQTRGHEVVVVDDERCKKIMKQFIDERPQDWFEDIGEASEPFKNVYLLPQTNQLLGLYTIIRNKNTTRPDFIFYSDRIIRLLVEEGLNHLPVQKQIVETDTNENFEGVSFMGKICGVSIVRAGESMEQGLRDCCRSVRIGKILIQRDEETALPKLFYEKLPEDISERYVFLLDPMLATGGSAIMATEVLIKRGVKPERIYFLNLICSKEGIEKYHAAFPEVRIVTGALDRGLDENKYLVPGLGDFGDRYYCVLEHHHHHH	1200 ± 100 µM	137.2 ± 3.6 µM/min	1200 ± 100 µM	112.7 ± 8.1 µM/min				can not be effectively bound		weak binding
